# Data: the nanobody polyreactivity screen of Harvey et al. (2022)
# Experiment: yeast display, Sf9 membrane polyspecificity reagent, FACS + sequencing; frameworks hold sequencing errors
# How it was run: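 Nanobodies came from a synthetic yeast display library in Saccharomyces cerevisiae BJ5465, induced with galactose for 36–48 hours and stained for 1 hour at 4 °C with 10% biotinylated, detergent-solubilized Sf9 membrane reagent. Cells were enriched on streptavidin microbeads and then FACS-sorted, with low and high (top ~1%) gates set on anti-HA fluorescence for expression and streptavidin fluorescence for reagent binding. Each polyreactivity label reflects the gate a clone came from. Genes were amplified by colony PCR, sequenced by MiSeq 2 × 250 and filtered by CDR length.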
sequence,measurement,value
QVQLVESGRGLVQAGGSLRLSCAASGRIFSGNAMGWYRQAPGKERELVAGITWTGGRTYYAASVKGRFTISRDNAKNTVYLQMNSLKPEDTAVYYCAARYTRWSDLMYYWGQGTQVTVSS,polyreactivity (PSR sort gate),high polyreactivity
QVQLVESGRGLVQAGGSLRLSCAASGRIFVAYTMGLYRQAPGKERELVASINRSGGTYYADSVKGRFTISRDNAKNTVYLQMNRLKPEDTAVYYCNAVFRSRSYFSKGDYWGQGTQVTVSS,polyreactivity (PSR sort gate),high polyreactivity
QVQLVESGRGLVQAGGSLRLSCAASGRIFYYNDMGWYRQAPGKERELVASITGSGGSTYYADSVKGRFTISRDNAKNTVYLQMNSLKPEDTAVYYCAKREYLYPYYYVAKYDYWGQGTQVTVSS,polyreactivity (PSR sort gate),low polyreactivity
QVQLVESGRGLVQAGGSLRLSCAASGRIYRRNAIGWYRQAPGKERELVAAITWSDGSTYYADSVKGRFTISRDNAKNTVYFQMNSLKPEDTAVYYCNKVTRSPSEYDYWGQGTQVTVSS,polyreactivity (PSR sort gate),high polyreactivity
QVQLVESGRGLVQAGGSLRLSCAASGRTFAVSTMGWYRKAAGQERELVATISWSGGSTYYADSVKGRFTISRDNAKNTVYLQMNSLKPEDTAVYFCNADFTWGSYERDYWGQGTQGTVSS,polyreactivity (PSR sort gate),high polyreactivity
QVQLVESGRGLVQAGGSLRLSCAASGRTFNWYAKGWYRQAPGKERELVAAISSGGSTYYADSVKGRFTISRDNAKNTVYLQMNSLKPEDTAVYYCAAVTPSGAHRSAYHPISDYWGQGTQVTVSS,polyreactivity (PSR sort gate),low polyreactivity
QVQLVESGRGLVQAGGSLRLSCAASGRTVWVYTMGWYRQAPGKERELVAAITLSGGSTYYADSVKGRFTISRDNAKNTVYLQMNSLKPEDTAVYYSNARPYYYTYRHSQYYYWGQGTQVTVSS,polyreactivity (PSR sort gate),high polyreactivity
QVQLVESGRGLVQAGGSLRLSCAASGSIFNCYDMGWYRQAPGKERELVADIRSAGSTYYADSVKGRFTISRDNAKNTVYLQMNSLKPEDTAVNYCAAEAPVQPFYVFNTGIYELDYWGQGTQVTVSS,polyreactivity (PSR sort gate),low polyreactivity
QVQLVESGRGLVQAGGSLRLSCAASGSIFQKYTMGWYRQAPGKERELVAGINTSGANTYYADSVKGRFTISRDNAKNTVYLQMNSLKPEDTAVYYCAAARPWFAYYYWGQGTQVTVSS,polyreactivity (PSR sort gate),high polyreactivity
QVQLVESGRGLVQAGGSLRLSCAASGSIFRGNAMGWYRQAPGKERELVAAMTKRGGSTYYADSGKGRFTISRDNAKNTDKFQMNSLKPEDTAVYYFAAKPSYRYYKSYDYWGQGTQVTVSS,polyreactivity (PSR sort gate),high polyreactivity
QVQLVESGRGLVQAGGSLRLSCAASGSIFSGNAMGWYRQAPGKERELVAAISRSGGSTYYADSVKGRFTISRDNAKNTVYLQLYSLKPEDTAVYYCAAYRTHGPPRALRFDYWGQGTLVTVSS,polyreactivity (PSR sort gate),high polyreactivity
QVQLVESGRGLVQAGGSLRLSCAASGSTFLGNAMGWYREAPGKARELVAAITSAGSTYYADSVKGRFTISRDNAKNTVYLQMNSLKPEDTAVYYCNADSTWGGYGFDDWGQGTQVTVSS,polyreactivity (PSR sort gate),low polyreactivity
QVQLVESGRGLVQAGGSLRLSCAASGSTFVYNVMGWYRQAHGKERELVAAIRRRGGSTYADSVKGRFTITRDNAKNTVYLQMNSLNPEVTAVYYCAAGIPRYWYAGHYDYWGQGTKVTVSS,polyreactivity (PSR sort gate),low polyreactivity
QVQLVESGRGLVQAGGSLRLSCAASGSTLATYTMGWYRQAPGKERELVPAISFGGSTYYADSVKGRFTISRDNAKNTVYLQMNSLKPEDTAVYYCAVYGDSYWGAYYYSDGYWGQGTQVTVSS,polyreactivity (PSR sort gate),low polyreactivity
QVQLVESGRGLVQAGGSLRLSCAASGYTFSNYGMGWYRQAPGKERELVAGIILGGSSTYYADSVKGRFTISRDNAKNTVYLQMNSLKPEDTAVYYCAAYVTGRYDWGQGTQVTVSS,polyreactivity (PSR sort gate),high polyreactivity
QVQLVESGRGLVQAGGSLRLSCAATGLTFNQYAMGWYRQAPGKERELVAAITRVGRTYYADSVKGRFTISRDNAKNSVYLQMNSLKPEDTAVYYWGYPDVAERRGSYYWGQGTQVTVSS,polyreactivity (PSR sort gate),high polyreactivity
QVQLVESGRGLVQAGGSLRLSCAPSGRISAQYTMGWYRQAPGKERELVAAITWSGTNTYYADSVKGRFTISRDNAKNTVYLQMNSLKPEDTAVYYCATAVYLVIFEYDYWGQGTQVTVSS,polyreactivity (PSR sort gate),low polyreactivity
QVQLVESGRGLVQAGGSLRLSCASSGFIFGPYAMGWYRQAPGKERELVAAISRRGGSTYYADSVKGRFTISRDNAKNTVYLQMNSLKPEDTAVYYCATRISQSYYNYGYWGQGTQGTVSS,polyreactivity (PSR sort gate),high polyreactivity
QVQLVESGRGLVQAGGSLRLTGAASGRIFGLYAMGWYRHAPGKERELVAAISRRGGTTYYADSVQGRFTISRDNAKNTVDLQMNSLKPEDTAVYYCAAATVYLSWYYWGQGTQVTVSS,polyreactivity (PSR sort gate),high polyreactivity
QVQLVESGRGLVQAGGSLSLSCAASGSILYIYAMVWNIQAPGKERELVDSINSGGSTNYADSVKGRFTISRDNAKNTVYLEMNSLIPEDTAVYYCAKSIGNPPQGFKDFDYWGQGTLVTVSS,polyreactivity (PSR sort gate),low polyreactivity
QVQLVESGRGLVQEGGSLRLSCAASGSTFEPYAMGWYRQAPGKERELVAAITLTAGSTYYADSVKGRFTISRDNAKNTVYLQRNSLKPEDTAVYYCAAEFWLVEDDYWGQGTQVTVSS,polyreactivity (PSR sort gate),low polyreactivity
QVQLVESGRGLVRAGGSLPFSCAASAGNFMRYAMGWYRQAPGKERELVAAITANGGSTYYADSVKGRFTISRDNAKNTVYLQMNSLKPEDTAVYYCNADTGVRSYRRDYWGQGSQVTVSS,polyreactivity (PSR sort gate),low polyreactivity
QVQLVESGRRLVQAGGSLRLSCAASGRIFPGNAMGWYRQAPGKERELVAAMSYGGGSTYYADSVKGRFTISRDNAKNTVYLQMNSLKPEDTAVYYCAARYRGSRFDYWGQGTQVTVSS,polyreactivity (PSR sort gate),high polyreactivity
QVQLVESGRVLVQAGGSLRLSCAASGITFISYAMGWYRPAPGKQSELVAVISKSGGRTYYADSVKGSFTISRDNANNTVYLQMNSLKPEDTAVYYCAADVYLSRYEKYGYWGQGTQVTVSS,polyreactivity (PSR sort gate),high polyreactivity
QVQLVESGVALVQAAGSLRLSCAASGSTFGYYTMGWYRQAPGKERELVAAISWSGGSTYYADSVKGRFTISRDHAKTTVYLQMNSLKPEDTAVYFCAAKTNRGSYSYEYWGQGTQVTVSS,polyreactivity (PSR sort gate),high polyreactivity
QVQLVESGVCLVQAGGSLRLSCASSGRILSTYAMGWYRQPPGKERELVAAISSGGSTYYADSVKGRFTISRDNAKHTVDLQMNSLKPEDTAVYYCNARKKRGYSRPAFDYWGQGTQVTVSS,polyreactivity (PSR sort gate),high polyreactivity
QVQLVESGVGFVQAGGSLRLSCAASGRIFGYYMGWYIQAPGKERELVAGISKRGTRTRYADSVKGRFTISRDNAKNTVFLQMNSLKPEDTAVYYCNADYYVSNMDYWGQGTQVTVSS,polyreactivity (PSR sort gate),high polyreactivity
QVQLVESGVGIVEAGGSLRLSCAASGRSFTYNAMVWYRQAPGKERELVAAISNTGSTYYADSVKGRFTISRDNAKNSVYLQMNCVKPEDTAVYYCAADRAEFRQDDDPGESNYWGQGTQVTVSS,polyreactivity (PSR sort gate),low polyreactivity
QVQLVESGVGIVQAGGILRLSCAASGSIFFFYAMGWYRQAPAKERELVAAITSSDGDTYYADSVKGRFTISRDNAKNTVYLEMNSLKPEDTAVYYCAVRSSWYEGDYWGQGTQVTVSS,polyreactivity (PSR sort gate),low polyreactivity
QVQLVESGVGIVQAGGSLRLSCAASGSTFRAYVMGWYRQAPGKERELVAVISSGGSTKYADSVKGRFTISRDNAKNTDYVQMNSLKPVDTAVYYCAARRASRHRYYPFDYWGQGTQVTVSS,polyreactivity (PSR sort gate),high polyreactivity
QVQLVESGVGLDQAGGSLRLSCAASGSIFIINAMGLYRQAPGKERELVARISNGGNTYADSVKGRFTISRDNAKNTVYLQMKSLKPEDTAVYYCAARAYARRPKYVPKFDYWGQGTQVTVSS,polyreactivity (PSR sort gate),high polyreactivity
QVQLVESGVGLFQAGGSLRLTCAASGSTFYLNDMGWYRQAPAKERELVAAIDWSGGSTYYADSVKGRFTNSRDNAKYYGYLQMNSLTPEDTAVYYCAARLFYEWRRLDYFIAWDYWGHGTQVTVSS,polyreactivity (PSR sort gate),low polyreactivity
QVQLVESGVGLVKAGVSLRLSSDASARIFPHYAMGWYRQAPGKERELFAPINVDGGRTYYPDSVKGRFTISRDNAKNTVYLQLNILKPEDTAVYYCAAKPFLYHDQDYGYAVEFNYWGQGTQVTVSS,polyreactivity (PSR sort gate),low polyreactivity
QVQLVESGVGLVQAAGSLRLSCASSGIICGEYAMGWYRQAPGNERELVAAISGSGSRTYYADSVKVRFTISRDIAKNTVFLQMNRLKPEDTAVYYCNSRRYIYNYDYWGQGTQVTVSS,polyreactivity (PSR sort gate),high polyreactivity
QVQLVESGVGLVQAGGILRLSCAASGRIFNGYALGWYRQAPGKERELVAVITWNGGSTYYADSVKGRFTISRDNAKNTVYLQMNSLKPEETAVYYCADRRTGYYGTRDYWGQVTQVTVSS,polyreactivity (PSR sort gate),high polyreactivity
QVQLVESGVGLVQAGGILRLSCAASGRIFYKNAMVWYRQAPGKERELVATITYSDGTTYYADSLKGRFTISRDNAKNTVYLQMNSLKPEDTAVYYCAAQTDSVESDYWGQGTQVTVSS,polyreactivity (PSR sort gate),low polyreactivity
QVQLVESGVGLVQAGGILRLSCAASGSSFRGYAMGWYRQAPGKERELVAAISSRGARTHYADSVKGRFTISRDNAKNTVYLQMNRLKPEDTAVYYCNKRQVFVSTGEYEFDYWGQGTQVTVSS,polyreactivity (PSR sort gate),low polyreactivity
QVQLVESGVGLVQAGGRLRLICAASGSTYDSAMGWYIQAPGKERELVASISWSDSSTYYADSVKGRFTISPDNAKNTVYLQMTSLKPEDSAVYYCNAEQGTRDSDYWGQGTQVTVSS,polyreactivity (PSR sort gate),low polyreactivity
QVQLVESGVGLVQAGGRLRLSCAASGLTLHRYTMGWYRQAPGKERELVAVITYGGGNTYYADSVKGRFTISRDNAKNTVYLQLNCLKPEDTAVYYCAARDPPFYWYDYWGQGTQVTVSS,polyreactivity (PSR sort gate),low polyreactivity
QVQLVESGVGLVQAGGRLRLSCAASGRIFGSNAMGWYRQAPGKERELVAAITRSGGSTYYADSVKGRFTISRDNAKNTVYLQMNSLKPEDTAVYYCAAVRTQPKYDYCGQGTQVTVSS,polyreactivity (PSR sort gate),high polyreactivity
QVQLVESGVGLVQAGGRLRLSCAASGSIFYYYAMGWYRQAPGKERELVAAISGTGGSTYYADSVKGRFTISRDNAKITFYLQMNSLKPEDTAVYYCAASFYIERHRYIYWGQGTQVTVSS,polyreactivity (PSR sort gate),high polyreactivity
QVQLVESGVGLVQAGGSLRLICADSGSIFSQYAMGGYRPAPGKERELVAAISKNGGSTYYADSVKGRFTISRDNAKNTVYSQMNSLKPEDTAVYYCAARVLKGYYWGQGTQVTVSS,polyreactivity (PSR sort gate),high polyreactivity
QVQLVESGVGLVQAGGSLRLSCAASGFIFGVTTMGWYRLAPGKERELVAAISTLASSTFDADSVKGRFTISRDNAKNTVYLQMNSLKPEDTAVYYCAVDLNWFFSFGLDYWGQGTQLTVSS,polyreactivity (PSR sort gate),low polyreactivity
